Assay results reported in the supplement of paper PMC9112550, “Optimization of the antimicrobial peptide Bac7 by deep mutational scanning” (BMC Biology, 2022).

These sequences were tested on Escherichia coli TOP10 (assay: shrunken log2 fold change of peptide-encoding DNA abundance (4.5 h post-induction vs induction); higher = less antimicrobial activity (less host growth inhibition)). Settings: time post-induction: 4.5 h; library: site-saturation at positions 5, 18, 19, 20.
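Also: peptides expressed intracellularly from a pBAD plasmid library in pooled LB shake-flask culture, induced with 0.3% L-arabinose, DNA abundance read by NGS, three biological replicates, DESeq2 with apeglm shrinkage.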

Row | Sequence | shrunken log2 fold change
1 | RRIRQRPPRLPRPRPRPCWHPRP | -0.129
2 | RRIRWRPPRLPRPRPRPGMRPRP | 0.976
3 | RRIRLRPPRLPRPRPRPVKAPRP | -0.0553
4 | RRIRGRPPRLPRPRPRPNNTPRP | -0.0658
5 | RRIRFRPPRLPRPRPRPPCKPRP | 0.352
6 | RRIRQRPPRLPRPRPRPRFAPRP | 0.141
7 | RRIRMRPPRLPRPRPRPCAFPRP | 0.121
8 | RRIRCRPPRLPRPRPRPDMAPRP | -0.145
9 | RRIRFRPPRLPRPRPRPGRWPRP | 0.653
10 | RRIRDRPPRLPRPRPRPQKHPRP | -0.108
11 | RRIRFRPPRLPRPRPRPNNTPRP | -0.999
12 | RRIRKRPPRLPRPRPRPIYMPRP | -0.0645
13 | RRIRYRPPRLPRPRPRPDYPPRP | -0.14
14 | RRIRPRPPRLPRPRPRPRNPPRP | 0.405
15 | RRIRVRPPRLPRPRPRPWCVPRP | -0.504
16 | RRIRVRPPRLPRPRPRPMPGPRP | 0.18
17 | RRIRTRPPRLPRPRPRPQRWPRP | 0.137
18 | RRIRARPPRLPRPRPRPPREPRP | 1.01
19 | RRIRMRPPRLPRPRPRPNCSPRP | 0.135
20 | RRIRPRPPRLPRPRPRPAEQPRP | 0.411
21 | RRIRCRPPRLPRPRPRPMSPPRP | -0.0415
22 | RRIRYRPPRLPRPRPRPKPFPRP | 0.0506
23 | RRIRYRPPRLPRPRPRPGWPPRP | 0.0827
24 | RRIRNRPPRLPRPRPRPHSSPRP | -0.00587
25 | RRIRARPPRLPRPRPRPRASPRP | 0.797

Row | Sequence | shrunken log2 fold change
26 | RRIRARPPRLPRPRPRPLKHPRP | -0.0681
27 | RRIRHRPPRLPRPRPRPKDVPRP | 0.0703
28 | RRIRQRPPRLPRPRPRPRNQPRP | -0.329
29 | RRIRSRPPRLPRPRPRPMMCPRP | 0.0105
30 | RRIRWRPPRLPRPRPRPQKRPRP | 0.00899
31 | RRIRRRPPRLPRPRPRPIPCPRP | 0.0472
32 | RRIRKRPPRLPRPRPRPHAHPRP | 0.428
33 | RRIRERPPRLPRPRPRPHSRPRP | -0.0374
34 | RRIRKRPPRLPRPRPRPGTPPRP | 0.824
35 | RRIRHRPPRLPRPRPRPSGDPRP | -0.107
36 | RRIRVRPPRLPRPRPRPIGAPRP | 0.255
37 | RRIRYRPPRLPRPRPRPCKNPRP | -1.05
38 | RRIRSRPPRLPRPRPRPDNHPRP | -0.307
39 | RRIRLRPPRLPRPRPRPGEWPRP | -0.00947
40 | RRIRFRPPRLPRPRPRPIFRPRP | -0.0966
41 | RRIRSRPPRLPRPRPRPQQVPRP | 0.0131
42 | RRIRVRPPRLPRPRPRPFFIPRP | -0.265
43 | RRIRNRPPRLPRPRPRPHTCPRP | 0.0167
44 | RRIRARPPRLPRPRPRPPVFPRP | 0.416
45 | RRIRSRPPRLPRPRPRPTQEPRP | 0.342
46 | RRIRYRPPRLPRPRPRPVWVPRP | 0.127
47 | RRIRERPPRLPRPRPRPDTQPRP | -0.116
48 | RRIRYRPPRLPRPRPRPNCCPRP | -0.518
49 | RRIRFRPPRLPRPRPRPWDQPRP | 0.0971
50 | RRIRDRPPRLPRPRPRPYCPPRP | -1.1

Row | Sequence | shrunken log2 fold change
51 | RRIRDRPPRLPRPRPRPGVCPRP | 0.358
52 | RRIRIRPPRLPRPRPRPYLYPRP | -0.544
53 | RRIRFRPPRLPRPRPRPAVAPRP | 0.196
54 | RRIRFRPPRLPRPRPRPGLTPRP | -0.143
55 | RRIRARPPRLPRPRPRPFNPPRP | -0.432
56 | RRIRQRPPRLPRPRPRPFLEPRP | -0.155
57 | RRIRPRPPRLPRPRPRPAAAPRP | 0.56
58 | RRIRDRPPRLPRPRPRPGFFPRP | 0.345
59 | RRIRRRPPRLPRPRPRPAGVPRP | 0.518
60 | RRIRARPPRLPRPRPRPGCQPRP | 0.168
61 | RRIRKRPPRLPRPRPRPIRKPRP | 0.092
62 | RRIRGRPPRLPRPRPRPEFWPRP | 2.24
63 | RRIRKRPPRLPRPRPRPHAYPRP | 0.0163
64 | RRIRKRPPRLPRPRPRPGETPRP | 0.476
65 | RRIRHRPPRLPRPRPRPCHQPRP | -0.601
66 | RRIRERPPRLPRPRPRPYDNPRP | 0.033
67 | RRIRFRPPRLPRPRPRPCLSPRP | -0.0617
68 | RRIRTRPPRLPRPRPRPYPRPRP | -0.0911
69 | RRIRCRPPRLPRPRPRPLTMPRP | -0.262
70 | RRIRGRPPRLPRPRPRPPWSPRP | 0.76
71 | RRIRRRPPRLPRPRPRPHPEPRP | 0.0463
72 | RRIRMRPPRLPRPRPRPIKTPRP | -0.0802
73 | RRIRSRPPRLPRPRPRPAQPPRP | 0.181
74 | RRIRARPPRLPRPRPRPQNFPRP | -0.0953
75 | RRIRCRPPRLPRPRPRPGLCPRP | 0.291

Row | Sequence | shrunken log2 fold change
76 | RRIRMRPPRLPRPRPRPYTYPRP | -0.398
77 | RRIRNRPPRLPRPRPRPWMFPRP | -0.182
78 | RRIRVRPPRLPRPRPRPCVQPRP | 0.0444
79 | RRIRRRPPRLPRPRPRPDWKPRP | 0.192
80 | RRIRSRPPRLPRPRPRPCQYPRP | 0.0376
81 | RRIRPRPPRLPRPRPRPHMRPRP | 0.0614
82 | RRIRIRPPRLPRPRPRPHIDPRP | -0.0031
83 | RRIRIRPPRLPRPRPRPWCGPRP | -0.454
84 | RRIRARPPRLPRPRPRPFDVPRP | -0.0821
85 | RRIRCRPPRLPRPRPRPIGYPRP | -0.00724
86 | RRIRRRPPRLPRPRPRPIALPRP | 0.0331
87 | RRIRFRPPRLPRPRPRPCWSPRP | -0.443
88 | RRIRFRPPRLPRPRPRPVLLPRP | -0.209
89 | RRIRTRPPRLPRPRPRPCLWPRP | -0.0838
90 | RRIRWRPPRLPRPRPRPCPKPRP | -0.0941
91 | RRIRKRPPRLPRPRPRPLRHPRP | 0.35
92 | RRIRWRPPRLPRPRPRPPLKPRP | 0.415
93 | RRIRRRPPRLPRPRPRPMTAPRP | 0.0357
94 | RRIRHRPPRLPRPRPRPYYPPRP | -0.228
95 | RRIRVRPPRLPRPRPRPTMHPRP | -0.103
96 | RRIRARPPRLPRPRPRPGEFPRP | 0.388
97 | RRIRYRPPRLPRPRPRPNWCPRP | 0.01
98 | RRIRVRPPRLPRPRPRPENHPRP | -0.187
99 | RRIRPRPPRLPRPRPRPVIYPRP | -0.063
100 | RRIRQRPPRLPRPRPRPVYDPRP | -0.228

Row | Sequence | shrunken log2 fold change
101 | RRIRHRPPRLPRPRPRPSKTPRP | -0.24
102 | RRIRSRPPRLPRPRPRPLHQPRP | -0.248
103 | RRIRGRPPRLPRPRPRPPIIPRP | -0.0886
104 | RRIRPRPPRLPRPRPRPKEYPRP | -0.356
105 | RRIRARPPRLPRPRPRPIVHPRP | -0.311
106 | RRIRHRPPRLPRPRPRPMMHPRP | 0.117
107 | RRIRLRPPRLPRPRPRPWATPRP | -0.0496
108 | RRIRPRPPRLPRPRPRPLTDPRP | 0.111
109 | RRIRSRPPRLPRPRPRPCRQPRP | -0.184
110 | RRIRRRPPRLPRPRPRPMWNPRP | 0.00386
111 | RRIRDRPPRLPRPRPRPRCDPRP | -0.0149
112 | RRIRVRPPRLPRPRPRPHKWPRP | -0.0581
113 | RRIRWRPPRLPRPRPRPMPYPRP | -0.0164
114 | RRIRERPPRLPRPRPRPSTCPRP | -0.324
115 | RRIRHRPPRLPRPRPRPLFAPRP | 0.107
116 | RRIRDRPPRLPRPRPRPVSRPRP | 0.218
117 | RRIRFRPPRLPRPRPRPWMIPRP | -0.00776
118 | RRIRARPPRLPRPRPRPPLPPRP | 0.762
119 | RRIRMRPPRLPRPRPRPQTKPRP | 0.205
120 | RRIRSRPPRLPRPRPRPYNWPRP | -0.0406
121 | RRIRYRPPRLPRPRPRPLALPRP | -0.816
122 | RRIRSRPPRLPRPRPRPLETPRP | -0.122
123 | RRIRVRPPRLPRPRPRPINQPRP | -0.749
124 | RRIRSRPPRLPRPRPRPPWQPRP | 0.449
125 | RRIRNRPPRLPRPRPRPKQCPRP | -0.293
